Source: patent publication US20130101592A1 (LYKERA BIOMED, published 2013)

Tests used:
[1] = target: recombinant human S100A2 (Abnova) (human, UniProt P29034 1-98); test: ELISA on purified protein; legend: - no reaction
[2] = target: recombinant human S100A6 (Abnova) (human, UniProt P06703 1-90); test: ELISA on purified protein; legend: - no reaction
recombinant human S100A7 = target: T1, recombinant human S100A7 (human, UniProt P31151 1-101); test: ELISA on purified protein; legend: - no reaction
T1 sequence (looked up): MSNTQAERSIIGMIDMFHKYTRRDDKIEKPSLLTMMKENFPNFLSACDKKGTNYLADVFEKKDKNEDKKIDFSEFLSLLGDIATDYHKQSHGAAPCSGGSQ

[3] = target: T2, recombinant human S100A1 (Abnova) (human, UniProt P23297 1-94); test: ELISA on purified protein; legend: - no reaction
T2 sequence (looked up): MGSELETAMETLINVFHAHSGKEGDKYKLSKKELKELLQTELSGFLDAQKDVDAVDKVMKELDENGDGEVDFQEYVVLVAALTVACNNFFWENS

[4] = target: T3, recombinant murine S100A4 (murine, UniProt P07091 1-101); test: ELISA on purified protein; legend: ++++ positive reaction
T3 construct: also called Mouse S100A4
T3 sequence (P07091 whole entry, one chain of several): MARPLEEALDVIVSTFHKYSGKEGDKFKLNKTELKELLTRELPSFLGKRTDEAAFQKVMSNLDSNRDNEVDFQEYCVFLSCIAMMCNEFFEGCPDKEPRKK

Sequence of recombinant human S100A2 (Abnova) (P29034 whole entry, one chain of several): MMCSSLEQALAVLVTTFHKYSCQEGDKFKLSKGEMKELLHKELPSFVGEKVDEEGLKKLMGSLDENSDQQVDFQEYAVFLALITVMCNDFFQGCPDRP

binding result [1]: no binding
binding result [2]: no binding
binding result (recombinant human S100A7): no binding
binding result [3]: no binding
binding result [4]: binds
B1: monoclonal antibody 5C3 (hybridoma 5C3-1B8-1F4, ECACC 10022401) (antibody, IgG1, V domains shown)
VH: EAQLQQSGAELVKPGASVKLSCTASGFNIQETYMHWVKQRPEQGLEWIGRIDPANGNTKDDPKFQGKASITVDTSSNTAYLQLSSLTSEDTAVYYCASSYAMDYWGQGTSVTVSS
VL: DVLMTQTPLSLPVSLGDQASISCRSSQSIVHSNGNTYLEWYLQKTGQSPELLIYKVSNRLSGVPDRFSGSGSGTDFTLKISRVEAEDLGVYYCFQGSHVPFTFGSGTKLEIK
notes: constant regions are not; also called monoclonal mouse anti-human S100A4 5C3
